Assay results as given in patent publication US20160272683A1 (Novo Nordisk, published 2016).
Numbered stars: 1 amine (or outer) side, 2 acyl side, 3 side chain; on linkers, the order of the positions; unused ones are H or OH. Side chains are listed from the residue outwards. * marks the point of attachment. C20 diacid = O=C(O)CCCCCCCCCCCCCCCCCCC(=O)*; C18 diacid = O=C(O)CCCCCCCCCCCCCCCCC(=O)*; γGlu = O=C(O)[C@H](CCC(=O)[*:2])N[*:1]; C12 diacid = O=C(O)CCCCCCCCCCC(=O)*; Palmitoyl = CCCCCCCCCCCCCCCC(=O)*

T1: human amylin 3(a) receptor (human calcitonin receptor co-expressed with RAMP-3) (human, UniProt P30988 25-474; O60896 24-148, limits assumed)
T1 sequence (looked up) 1: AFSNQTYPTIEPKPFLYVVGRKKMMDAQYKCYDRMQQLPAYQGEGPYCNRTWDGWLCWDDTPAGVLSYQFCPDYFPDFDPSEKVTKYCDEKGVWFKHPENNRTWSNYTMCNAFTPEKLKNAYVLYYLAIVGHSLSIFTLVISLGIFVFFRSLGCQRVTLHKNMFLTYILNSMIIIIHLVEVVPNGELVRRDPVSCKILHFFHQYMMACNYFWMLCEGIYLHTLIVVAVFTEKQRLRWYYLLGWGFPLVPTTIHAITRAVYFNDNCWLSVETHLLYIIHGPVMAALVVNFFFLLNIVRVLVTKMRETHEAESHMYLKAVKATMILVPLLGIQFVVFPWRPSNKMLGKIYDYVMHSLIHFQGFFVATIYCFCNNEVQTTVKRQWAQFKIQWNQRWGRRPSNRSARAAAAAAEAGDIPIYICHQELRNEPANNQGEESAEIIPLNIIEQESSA
T1 sequence (looked up) 2: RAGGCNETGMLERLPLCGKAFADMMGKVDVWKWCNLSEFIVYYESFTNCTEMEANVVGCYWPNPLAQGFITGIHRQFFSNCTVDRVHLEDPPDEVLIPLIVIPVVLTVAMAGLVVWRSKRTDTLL

T2: human calcitonin receptor (human, UniProt P30988 25-474)
T2 sequence (looked up): T1 sequence (looked up) 1

B1: [N-terminal(C20 diacid-gGlu), des1, 30S, 31G, 33G]mimylin (peptide)
peptide: {C20 diacid-γGlu}-ASELSTAALGRLSAELHELATLPRTETGSGSG-NH2
SMILES: CC(C)C[C@H](NC(=O)[C@H](C)NC(=O)[C@H](C)NC(=O)[C@@H](NC(=O)[C@H](CO)NC(=O)[C@H](CC(C)C)NC(=O)[C@H](CCC(=O)O)NC(=O)[C@H](CO)NC(=O)[C@H](C)NC(=O)CC[C@H](NC(=O)CCCCCCCCCCCCCCCCCCC(=O)O)C(=O)O)[C@@H](C)O)C(=O)NCC(=O)N[C@@H](CCCNC(=N)N)C(=O)N[C@@H](CC(C)C)C(=O)N[C@@H](CO)C(=O)N[C@@H](C)C(=O)N[C@@H](CCC(=O)O)C(=O)N[C@@H](CC(C)C)C(=O)N[C@@H](Cc1c[nH]cn1)C(=O)N[C@@H](CCC(=O)O)C(=O)N[C@@H](CC(C)C)C(=O)N[C@@H](C)C(=O)N[C@H](C(=O)N[C@@H](CC(C)C)C(=O)N1CCC[C@H]1C(=O)N[C@@H](CCCNC(=N)N)C(=O)N[C@H](C(=O)N[C@@H](CCC(=O)O)C(=O)N[C@H](C(=O)NCC(=O)N[C@@H](CO)C(=O)NCC(=O)N[C@@H](CO)C(=O)NCC(N)=O)[C@@H](C)O)[C@@H](C)O)[C@@H](C)O
B2: [N-terminal(C20 diacid-gGlu), des1, 30S, 31G, 33A]mimylin (peptide)
peptide: {C20 diacid-γGlu}-ASELSTAALGRLSAELHELATLPRTETGSGSA-NH2
SMILES: CC(C)C[C@H](NC(=O)[C@H](C)NC(=O)[C@H](C)NC(=O)[C@@H](NC(=O)[C@H](CO)NC(=O)[C@H](CC(C)C)NC(=O)[C@H](CCC(=O)O)NC(=O)[C@H](CO)NC(=O)[C@H](C)NC(=O)CC[C@H](NC(=O)CCCCCCCCCCCCCCCCCCC(=O)O)C(=O)O)[C@@H](C)O)C(=O)NCC(=O)N[C@@H](CCCNC(=N)N)C(=O)N[C@@H](CC(C)C)C(=O)N[C@@H](CO)C(=O)N[C@@H](C)C(=O)N[C@@H](CCC(=O)O)C(=O)N[C@@H](CC(C)C)C(=O)N[C@@H](Cc1c[nH]cn1)C(=O)N[C@@H](CCC(=O)O)C(=O)N[C@@H](CC(C)C)C(=O)N[C@@H](C)C(=O)N[C@H](C(=O)N[C@@H](CC(C)C)C(=O)N1CCC[C@H]1C(=O)N[C@@H](CCCNC(=N)N)C(=O)N[C@H](C(=O)N[C@@H](CCC(=O)O)C(=O)N[C@H](C(=O)NCC(=O)N[C@@H](CO)C(=O)NCC(=O)N[C@@H](CO)C(=O)N[C@@H](C)C(N)=O)[C@@H](C)O)[C@@H](C)O)[C@@H](C)O
B3: [N-terminal(C20 diacid-gGlu), des1, 15E, 30S, 31G]mimylin (peptide)
peptide: {C20 diacid-γGlu}-ASELSTAALGRLSEELHELATLPRTETGSGSP-NH2
SMILES: CC(C)C[C@H](NC(=O)[C@H](C)NC(=O)[C@H](C)NC(=O)[C@@H](NC(=O)[C@H](CO)NC(=O)[C@H](CC(C)C)NC(=O)[C@H](CCC(=O)O)NC(=O)[C@H](CO)NC(=O)[C@H](C)NC(=O)CC[C@H](NC(=O)CCCCCCCCCCCCCCCCCCC(=O)O)C(=O)O)[C@@H](C)O)C(=O)NCC(=O)N[C@@H](CCCNC(=N)N)C(=O)N[C@@H](CC(C)C)C(=O)N[C@@H](CO)C(=O)N[C@@H](CCC(=O)O)C(=O)N[C@@H](CCC(=O)O)C(=O)N[C@@H](CC(C)C)C(=O)N[C@@H](Cc1c[nH]cn1)C(=O)N[C@@H](CCC(=O)O)C(=O)N[C@@H](CC(C)C)C(=O)N[C@@H](C)C(=O)N[C@H](C(=O)N[C@@H](CC(C)C)C(=O)N1CCC[C@H]1C(=O)N[C@@H](CCCNC(=N)N)C(=O)N[C@H](C(=O)N[C@@H](CCC(=O)O)C(=O)N[C@H](C(=O)NCC(=O)N[C@@H](CO)C(=O)NCC(=O)N[C@@H](CO)C(=O)N1CCC[C@H]1C(N)=O)[C@@H](C)O)[C@@H](C)O)[C@@H](C)O
B4: [N-terminal(C20 diacid-gGlu), des1, 25H, 30S, 31G]mimylin (peptide)
peptide: {C20 diacid-γGlu}-ASELSTAALGRLSAELHELATLPHTETGSGSP-NH2
SMILES: CC(C)C[C@H](NC(=O)[C@H](C)NC(=O)[C@H](C)NC(=O)[C@@H](NC(=O)[C@H](CO)NC(=O)[C@H](CC(C)C)NC(=O)[C@H](CCC(=O)O)NC(=O)[C@H](CO)NC(=O)[C@H](C)NC(=O)CC[C@H](NC(=O)CCCCCCCCCCCCCCCCCCC(=O)O)C(=O)O)[C@@H](C)O)C(=O)NCC(=O)N[C@@H](CCCNC(=N)N)C(=O)N[C@@H](CC(C)C)C(=O)N[C@@H](CO)C(=O)N[C@@H](C)C(=O)N[C@@H](CCC(=O)O)C(=O)N[C@@H](CC(C)C)C(=O)N[C@@H](Cc1c[nH]cn1)C(=O)N[C@@H](CCC(=O)O)C(=O)N[C@@H](CC(C)C)C(=O)N[C@@H](C)C(=O)N[C@H](C(=O)N[C@@H](CC(C)C)C(=O)N1CCC[C@H]1C(=O)N[C@@H](Cc1c[nH]cn1)C(=O)N[C@H](C(=O)N[C@@H](CCC(=O)O)C(=O)N[C@H](C(=O)NCC(=O)N[C@@H](CO)C(=O)NCC(=O)N[C@@H](CO)C(=O)N1CCC[C@H]1C(N)=O)[C@@H](C)O)[C@@H](C)O)[C@@H](C)O
B5: [N-terminal(C20 diacid-gGlu), des1, 30T, 31G, 32T]mimylin (peptide)
peptide: {C20 diacid-γGlu}-ASELSTAALGRLSAELHELATLPRTETGTGTP-NH2
SMILES: CC(C)C[C@H](NC(=O)[C@H](C)NC(=O)[C@H](C)NC(=O)[C@@H](NC(=O)[C@H](CO)NC(=O)[C@H](CC(C)C)NC(=O)[C@H](CCC(=O)O)NC(=O)[C@H](CO)NC(=O)[C@H](C)NC(=O)CC[C@H](NC(=O)CCCCCCCCCCCCCCCCCCC(=O)O)C(=O)O)[C@@H](C)O)C(=O)NCC(=O)N[C@@H](CCCNC(=N)N)C(=O)N[C@@H](CC(C)C)C(=O)N[C@@H](CO)C(=O)N[C@@H](C)C(=O)N[C@@H](CCC(=O)O)C(=O)N[C@@H](CC(C)C)C(=O)N[C@@H](Cc1c[nH]cn1)C(=O)N[C@@H](CCC(=O)O)C(=O)N[C@@H](CC(C)C)C(=O)N[C@@H](C)C(=O)N[C@H](C(=O)N[C@@H](CC(C)C)C(=O)N1CCC[C@H]1C(=O)N[C@@H](CCCNC(=N)N)C(=O)N[C@H](C(=O)N[C@@H](CCC(=O)O)C(=O)N[C@H](C(=O)NCC(=O)N[C@H](C(=O)NCC(=O)N[C@H](C(=O)N1CCC[C@H]1C(N)=O)[C@@H](C)O)[C@@H](C)O)[C@@H](C)O)[C@@H](C)O)[C@@H](C)O
B6: [N-terminal(C18 diacid-gGlu), des1, 30S, 31G, 32P]mimylin (peptide)
peptide: {C18 diacid-γGlu}-ASELSTAALGRLSAELHELATLPRTETGSGPP-NH2
SMILES: CC(C)C[C@H](NC(=O)[C@H](C)NC(=O)[C@H](C)NC(=O)[C@@H](NC(=O)[C@H](CO)NC(=O)[C@H](CC(C)C)NC(=O)[C@H](CCC(=O)O)NC(=O)[C@H](CO)NC(=O)[C@H](C)NC(=O)CC[C@H](NC(=O)CCCCCCCCCCCCCCCCC(=O)O)C(=O)O)[C@@H](C)O)C(=O)NCC(=O)N[C@@H](CCCNC(=N)N)C(=O)N[C@@H](CC(C)C)C(=O)N[C@@H](CO)C(=O)N[C@@H](C)C(=O)N[C@@H](CCC(=O)O)C(=O)N[C@@H](CC(C)C)C(=O)N[C@@H](Cc1c[nH]cn1)C(=O)N[C@@H](CCC(=O)O)C(=O)N[C@@H](CC(C)C)C(=O)N[C@@H](C)C(=O)N[C@H](C(=O)N[C@@H](CC(C)C)C(=O)N1CCC[C@H]1C(=O)N[C@@H](CCCNC(=N)N)C(=O)N[C@H](C(=O)N[C@@H](CCC(=O)O)C(=O)N[C@H](C(=O)NCC(=O)N[C@@H](CO)C(=O)NCC(=O)N1CCC[C@H]1C(=O)N1CCC[C@H]1C(N)=O)[C@@H](C)O)[C@@H](C)O)[C@@H](C)O

molecular target: T1, human amylin 3(a) receptor (human …); test: cell-based or functional assay

| Binder | hAmylin-R funct. EC50 (pM) |
| --- | --- |
| B1 | 142 pM |
| {C12 diacid}-EASELSTAALGRLSAELHELATLPRTETGPESP-NH2 [[N-terminal(C12 diacid)]mimylin] | 23 pM |
| B2 | 67 pM |
| B3 | 41 pM |
| Ac-ASK([γGlu-C20 diacid])LSTAALGRLSAELHELATLPRTETGSGSP-NH2 [[N-terminal(acetyl), des1, 4K(C20 diacid-gGlu), 30S, 31G]mimylin] | 36 pM |
| Ac-ASELSTAALGRLSAK([γGlu-C20 diacid])LHELATLPRTETGSGSP-NH2 [[N-terminal(acetyl), des1, 16K(C20 diacid-gGlu), 30S, 31G]mimylin] | 21 pM |
| Ac-ASELSTAALGRLSAELHK([γGlu-C20 diacid])LATLPRTETGSGSP-NH2 [[N-terminal(acetyl), des1, 19K(C20 diacid-gGlu), 30S, 31G]mimylin] | 32 pM |
| {C20 diacid-γGlu}-ASELSTAALGHLSAELHELATLPRTETGSGSP-NH2 [[N-terminal(C20 diacid-gGlu), des1, 12H, 30S, 31G]mimylin] | 17 pM |
| B4 | 27 pM |
| B5 | 50 pM |
| Palmitoyl-EASELSTAALGRLSAELHELATLPRTETGPESP-NH2 [[N-terminal(C16)]mimylin] | 10 pM |
| B6 | 80 pM |

molecular target: T2, human calcitonin receptor; test: cell-based or functional assay

| Binder | hCTR funct. EC50 (pM) |
| --- | --- |
| B1 | 66 pM |
| {C12 diacid}-EASELSTAALGRLSAELHELATLPRTETGPESP-NH2 [[N-terminal(C12 diacid)]mimylin] | 8 pM |
| B2 | 40 pM |
| B3 | 25 pM |
| Ac-ASK([γGlu-C20 diacid])LSTAALGRLSAELHELATLPRTETGSGSP-NH2 [[N-terminal(acetyl), des1, 4K(C20 diacid-gGlu), 30S, 31G]mimylin] | 27 pM |
| Ac-ASELSTAALGRLSAK([γGlu-C20 diacid])LHELATLPRTETGSGSP-NH2 [[N-terminal(acetyl), des1, 16K(C20 diacid-gGlu), 30S, 31G]mimylin] | 28 pM |
| Ac-ASELSTAALGRLSAELHK([γGlu-C20 diacid])LATLPRTETGSGSP-NH2 [[N-terminal(acetyl), des1, 19K(C20 diacid-gGlu), 30S, 31G]mimylin] | 19 pM |
| {C20 diacid-γGlu}-ASELSTAALGHLSAELHELATLPRTETGSGSP-NH2 [[N-terminal(C20 diacid-gGlu), des1, 12H, 30S, 31G]mimylin] | 12 pM |
| B4 | 18 pM |
| B5 | 45 pM |
| Palmitoyl-EASELSTAALGRLSAELHELATLPRTETGPESP-NH2 [[N-terminal(C16)]mimylin] | 13 pM |
| B6 | 19 pM |
